Experimental data published in US8563520B2, “Treatment of ocular disease with inhibitors of alpha2 macroglobulin protein” (McGill University, priority 2005, dated 2013).
Like-named read-outs stand apart in the source and are kept apart here.

Tested on: Rat Retina
Description: The following experiment was conducted in order to assess changes in gene expression induced in the retina after intraocular injection of α2 macroglobulin protein. 2 μg of α2 macroglobulin protein was intraocularly injected into the right eye of rats (n=3) and the left eye was used as a control. One rat was tested at Day 3, one rat was tested at Day 7 and one rat was tested at Day 14. Retinas were isolated and mRNA was collected. Samples from each of the rats were studied by gene microassays. Retinas were carefully dissected out to insure that only retinal mRNAs were prepared for gene microarray studies. Samples were obtained from control eyes.
Total RNA was isolated from retinal tissue using TRIZOL® (Life Technologies). RNA was then further purified using the RNAEASY® (QIAGEN®). The integrity of the RNA samples was assessed by running aliquots on RNA 6000 Nano LabChip (Agilent) using the 2100 bioanalyzer (Agilent).
Probe synthesis, hybridization and scanning were done according to Affymetrix protocol, as a service at the McGill University and Genome Quebec Innovation Centre. For the experiments shown, Rat U34 Genome Arrays (8,700 genes, Affymetrix) were used. Briefly, RNA samples were first converted to double stranded cDNA (T7-(dT)24 primer (Genset)). Then the cDNAs were purified and used to generate the biotinylated cRNA probes (Bioarray High Yield RNA transcript labeling kit (Enzo diagnostics)). An aliquot of the purified cRNA was analyzed on RNA 6000 Nano LabChip (Agilent) to verify the integrity and size distribution. Immediately after hybridization the chip was placed in the Affymetrix GeneChip Fluidics Station 400 (Affymetrix). In total, 10 low-stringency washes (63 SSPE, 0.01% Tween-20, 0.005% Antifoam) and 4 high-stringency washes (100 mM MES, 0.1 M NaCl, 0.01% Tween-20, 50 C) were performed (all reagents from Sigma). The array was then incubated with SAPE® (streptavidin/phycoerythrin stain, Molecular Probes), followed by 10 low stringency washes. The array was incubated with biotinylated anti-streptavidin antibody (Vector Laboratories) and washed again with 15 low stringency washes. Specifically bound probe was detected by placing the array in the Agilent GeneArray scanner 2500 (Affymetrix). The scanned images were analyzed using the Microarray Analysis Suite version 5.0 (Affymetrix).
The fold change was analyzed by […] data for the control eye from the data on the eye injected with α2 macroglobulin. A fold change of 2 or greater indicates upregulation. A fold of 0.5 to 2 indicates no change. A fold change of 0.5 or less indicates downregulation.

[1] = gene complexin 2 (1368584_a_at)
[2] = gene crystallin, beta A2 (1388385_at)
[3] = gene crystallin, beta B1 (1369985_at)
[4] = gene crystallin, beta B2 (1367684_at)
[5] = gene crystallin, beta B3 (1367990_at)
[6] = gene crystallin, gamma N (predicted) (1384241_at)
[7] = gene death effector domain-containing (1369003_at)
[8] = gene fibrinogen-like 2 (1392894_at)
[9] = gene forkhead box E3 (1370797_at)
[10] = gene glycoprotein 2 (zymogen granule membrane) (1386933_at)
[11] = gene glycoprotein (transmembrane) nmb (1368187_at)
[12] = gene guanylate nucleotide binding protein 2 (1368332_at)
[13] = gene interferon induced transmembrane protein 1 (predicted) (1372013_at)
[14] = gene lens intrinsic membrane protein 2 (1368493_at)
[15] = gene membrane metallo endopeptidase (1370072_at)
[16] = gene membrane-spanning 4-domains, subfamily A, member 6B (1390510_at)
[17] = gene procollagen, type III, alpha 1 (1370959_at)
[18] = gene procollagen, type IV, alpha 1 (1372439_at)
[19] = gene procollagen, type IV, alpha 1 (1373245_at)
[20] = gene serine (or cysteine) peptidase inhibitor, clade G, member 1 (1372254_at)
[21] = gene similar to Beta crystallin S (Gamma crystallin S) (1388435_at)
[22] = gene similar to FRBZ1 protein (FRBZ1) (predicted) (1398217_at)
[23] = gene similar to Phakinin (Beaded filament structural protein 2) (1383812_at)
[24] = gene similar to RCK (predicted) (1389868_at)
[25] = gene similar to RIKEN cDNA 1300010M03 (predicted) (1376087_at)
[26] = gene similar to RIKEN cDNA 1500009M05 (predicted) (1382193_at)
[27] = gene similar to RIKEN cDNA 4930555G01 (predicted) (1391152_at)
[28] = gene similar to RNA-binding protein Musashi2-S (predicted) (1390813_at)
[29] = gene similar to keratin complex 2, basic, gene 6a (1373349_at)
[30] = gene similar to mKIAA1450 protein (predicted) (1391315_at)
[31] = gene similar to serine (or cysteine) proteinase inhibitor (1388746_at)
[32] = gene solute carrier family 6 (neurotransmitter transporter, GABA) (1369715_at)
[33] = gene solute carrier family 6 (neurotransmitter transporter, taurine) (1368778_at)
[34] = gene spectrin alpha 1 (1386212_at)

B1: α2m: α2 macroglobulin protein injected intraocularly into normal rat eyes (protein, UniProt P06238 28-1472, looked up)
Alpha-2-macroglobulin: SAPQKPIYMVMVPSLLHAGTPEKACFLFSHLNETVAVRVSLESVRGNQSLFTDLVVDKDLFHCTSFTVPQSSSDEVMFFTVQVKGATHEFRRRSTVLVKKKESLVFAQTDKPIYKPGQTVRFRVVSLDESFHPLNELIPLLYIQDPKNNRIAQWQNFNLEGGLKQLSFPLSSEPTQGSYKVVIRTESGRTVEHPFSVEEFVLPKFEVRVTVPETITILEEEMNVSVCGIYTYGKPVPGRVTVNICRKYSNPSNCFGEESVAFCEKLSQQLDGRGCFSQLVKTKSFQLKRQEYEMQLDVHAKIQEEGTGVEETGKGLTKITRTITKLSFVNVDSHFRQGIPFVGQVLLVDGRGTPIPYETIFIGADEANLYINTTTDKHGLARFSINTDDIMGTSLTVRAKYKDSNACYGFRWLTEENVEAWHTAYAVFSPSRSFLHLESLPDKLRCDQTLEVQAHYILNGEAMQELKELVFYYLMMAKGGIVRAGTHVLPLKQGQMRGHFSILISMETDLAPVARLVLYAILPNGEVVGDTAKYEIENCLANKVDLVFRPNSGLPATRALLSVMASPQSLCGLRAVDQSVLLMKPETELSASLIYDLLPVKDLTGFPQGADQREEDTNGCVKQNDTYINGILYSPVQNTNEEDMYGFLKDMGLKVFTNSNIRKPKVCERLRDNKGIPAAYHLVSQSHMDAFLESSESPTETRRSYFPETWIWDLVVVDSAGVAEVEVTVPDTITEWKAGAFCLSNDTGLGLSPVVQFQAFQPFFVELTMPYSVIRGEAFTLKATVLNYLPTCIRVAVQLEASPDFLAAPEEKEQRSHCICMNQRHTASWAVIPKSLGNVNFTVSAEALNSKELCGNEVPVVPEQGKKDTIIKSLLVEPEGLENEVTFNSLLCPMGAEVSELIALKLPSDVVEESARASVTVLGDILGSAMQNTQDLLKMPYGCGEQNMVLFAPNIYVLDYLNETQQLTQEIKTKAIAYLNTGYQRQLNYKHRDGSYSTFGDKPGRNHANTWLTAFVLKSFAQARKYIFIDEVHITQALLWLSQQQKDNGCFRSSGSLLNNAMKGGVEDEVTLSAYITIALLEMSLPVTHPVVRNALFCLDTAWKSARGGAGGSHVYTKALLAYAFALAGNQDTKKEILKSLDEEAVKEEDSVHWTRPQKPSVSVALWYQPQAPSAEVEMTAYVLLAYLTTEPAPTQEDLTAAMLIVKWLTKQQNSHGGFSSTQDTVVALHALSKYGSATFTRAKKAAQVTIHSSGTFSTKFQVNNNNQLLLQRVTLPTVPGDYTVKVTGEGCVYLQTSLKYSVLPREEEFPFTVVVQTLPGTCEDPKAHTSFQISLNISYTGSRSESNMAIADVKMVSGFIPLKPTVKMLERSVHVSRTEVSNNHVLIYLDKVSNQTVNLSFTVQQDIPIRDLKPAVVKVYDYYEKDEFAVAKYSAPCSTDYGNA
Gene complement factor B (1389470_at)
  Fold Change (α2m vs normal) Day 7: 3.3
[1]
  Fold Change (α2m vs normal) Day 3: 0.5
  Fold Change (α2m vs normal) Day 7: 0.2
[2]
  Fold Change (α2m vs normal) Day 3: 0.5
  Fold Change (α2m vs normal) Day 7: 3.6
  Fold Change (α2m vs normal) Day 14: 2.0
[3]
  Fold Change (α2m vs normal) Day 3: 0.5
  Fold Change (α2m vs normal) Day 7: 3.4
  Fold Change (α2m vs normal) Day 14: 2.0
[4]
  Fold Change (α2m vs normal) Day 3: 0.4
  Fold Change (α2m vs normal) Day 7: 3.7
  Fold Change (α2m vs normal) Day 14: 2.2
[5]
  Fold Change (α2m vs normal) Day 3: 0.4
  Fold Change (α2m vs normal) Day 7: 4.2
  Fold Change (α2m vs normal) Day 14: 2.0
[6]
  Fold Change (α2m vs normal) Day 3: 0.5
  Fold Change (α2m vs normal) Day 7: 3.9
[7]
  Fold Change (α2m vs normal) Day 3: 0.5
  Fold Change (α2m vs normal) Day 7: 0.4
Gene decorin (1370956_at)
  Fold Change (α2m vs normal) Day 3: 3.7
  Fold Change (α2m vs normal) Day 7: 12.6
[8]
  Fold Change (α2m vs normal) Day 3: 2.1
  Fold Change (α2m vs normal) Day 7: 2.1
[9]
  Fold Change (α2m vs normal) Day 3: 0.4
  Fold Change (α2m vs normal) Day 7: 2.9
  Fold Change (α2m vs normal) Day 14: 2.2
[10]
  Fold Change (α2m vs normal) Day 3: 0.5
  Fold Change (α2m vs normal) Day 7: 2.1
[11]
  Fold Change (α2m vs normal) Day 3: 3.9
  Fold Change (α2m vs normal) Day 7: 7.4
[12]
  Fold Change (α2m vs normal) Day 3: 2.2
  Fold Change (α2m vs normal) Day 7: 2.1
[13]
  Fold Change (α2m vs normal) Day 3: 5.8
  Fold Change (α2m vs normal) Day 7: 4.2
[14]
  Fold Change (α2m vs normal) Day 3: 0.5
  Fold Change (α2m vs normal) Day 7: 2.5
Gene lumican (1367749_at)
  Fold Change (α2m vs normal) Day 3: 6.1
  Fold Change (α2m vs normal) Day 7: 4.1
  Fold Change (α2m vs normal) Day 14: 0.4
Gene lysozyme (1370154_at)
  Fold Change (α2m vs normal) Day 3: 7.8
  Fold Change (α2m vs normal) Day 7: 2.8
[15]
  Fold Change (α2m vs normal) Day 3: 0.5
  Fold Change (α2m vs normal) Day 7: 5.3
  Fold Change (α2m vs normal) Day 14: 2.2
[16]
  Fold Change (α2m vs normal) Day 3: 5.1
  Fold Change (α2m vs normal) Day 7: 2.1
[17]
  Fold Change (α2m vs normal) Day 3: 3.7
  Fold Change (α2m vs normal) Day 7: 3.4
[18]
  Fold Change (α2m vs normal) Day 3: 0.3
  Fold Change (α2m vs normal) Day 7: 17.5
  Fold Change (α2m vs normal) Day 14: 2.4
[19]
  Fold Change (α2m vs normal) Day 3: 0.3
  Fold Change (α2m vs normal) Day 7: 13.2
  Fold Change (α2m vs normal) Day 14: 2.3
[20]
  Fold Change (α2m vs normal) Day 3: 3.0
  Fold Change (α2m vs normal) Day 7: 3.3
[21]
  Fold Change (α2m vs normal) Day 3: 0.5
  Fold Change (α2m vs normal) Day 7: 2.8
  Fold Change (α2m vs normal) Day 14: 2.9
[22]
  Fold Change (α2m vs normal) Day 3: 0.5
  Fold Change (α2m vs normal) Day 7: 0.2
[23]
  Fold Change (α2m vs normal) Day 3: 0.4
  Fold Change (α2m vs normal) Day 7: 2.7
[24]
  Fold Change (α2m vs normal) Day 3: 0.5
  Fold Change (α2m vs normal) Day 7: 0.2
[25]
  Fold Change (α2m vs normal) Day 3: 0.5
  Fold Change (α2m vs normal) Day 7: 0.4
[26]
  Fold Change (α2m vs normal) Day 3: 0.4
  Fold Change (α2m vs normal) Day 7: 0.2
[27]
  Fold Change (α2m vs normal) Day 3: 2.0
  Fold Change (α2m vs normal) Day 7: 5.6
[28]
  Fold Change (α2m vs normal) Day 3: 0.5
  Fold Change (α2m vs normal) Day 7: 0.2
[29]
  Fold Change (α2m vs normal) Day 3: 7.3
  Fold Change (α2m vs normal) Day 7: 0.4
[30]
  Fold Change (α2m vs normal) Day 3: 0.5
  Fold Change (α2m vs normal) Day 7: 0.2
[31]
  Fold Change (α2m vs normal) Day 3: 0.4
  Fold Change (α2m vs normal) Day 7: 2.6
[32]
  Fold Change (α2m vs normal) Day 3: 0.5
  Fold Change (α2m vs normal) Day 7: 0.4
[33]
  Fold Change (α2m vs normal) Day 3: 0.5
  Fold Change (α2m vs normal) Day 7: 0.2
  Fold Change (α2m vs normal) Day 14: 2.3
[34]
  Fold Change (α2m vs normal) Day 3: 0.5
  Fold Change (α2m vs normal) Day 7: 2.1
Gene — (1393766_at, AI112375)
  Fold Change (α2m vs normal) Day 3: 0.4
  Fold Change (α2m vs normal) Day 7: 0.3
  Fold Change (α2m vs normal) Day 14: 3.6
Gene — (1394837_at, BF405797)
  Fold Change (α2m vs normal) Day 3: 0.3
  Fold Change (α2m vs normal) Day 7: 0.2
Gene — (1395129_at, BE107340)
  Fold Change (α2m vs normal) Day 3: 0.5
  Fold Change (α2m vs normal) Day 7: 0.3
